Values joined by “and” are separate entries in the source; they are usually repeats but may differ in a detail not shown here. Equal entries are not always repeated.
Key:
FimH [1] = target: FimH (Escherichia coli, UniProt P08191); experiment: biochemical; conditions: concentration at which 50% inhibition of HRP binding to FimH is observed, inhibitor added in the HRP binding step
Procedure: (§1) The biological activity of the FimCH drug substance (for example, from Example 3) is determined by an in vitro mannose binding assay. The FimH protein is a bacterial adhesin utilized by E. coli to bind mannose residues on glycosylated proteins. During urinary tract infections, the FimH adhesin binds mannosylated uroplakin proteins on bladder epithelial cells, which promotes the internalization of bound E. coli. The binding of FimH to mannosylated uroplakin is essential for E. coli to cause urinary tract infections. To monitor the mannose-binding activity of FimH in vitro, FimH binding to the enzyme horseradish peroxidase (HRP) is observed. HRP is a glycosylated protein containing mannose residues, and has previously been used to study mammalian mannose-binding receptors. Complexes of HRP and the lectin ConA, which binds α-D-mannosyl and α-D-glucosyl groups, have also been generated and studied.
(§2) HRP is then added, excess HRP is rinsed away, and the activity of bound HRP is detected.

FimH [2] = target: FimH (Escherichia coli, UniProt P08191, P197R/T222H); experiment: biochemical
Chain of FimH (Escherichia coli, UniProt P08191, P197R/T222H) (P08191 22-300 P197R/T222H, one chain of several): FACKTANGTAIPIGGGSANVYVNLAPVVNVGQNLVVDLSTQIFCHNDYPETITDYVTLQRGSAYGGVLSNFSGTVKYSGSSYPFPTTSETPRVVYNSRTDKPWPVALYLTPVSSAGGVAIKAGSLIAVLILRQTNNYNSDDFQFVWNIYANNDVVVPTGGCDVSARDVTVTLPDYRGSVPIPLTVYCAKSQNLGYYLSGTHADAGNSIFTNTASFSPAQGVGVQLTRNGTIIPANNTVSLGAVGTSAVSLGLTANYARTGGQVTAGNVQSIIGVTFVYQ
Procedure: as §1, §2

[3] = Storage stability of FimCH; assay type: physicochemical; conditions: stored at −20° C., 0.3 mg/mL in 20 mM MES pH 5.9 or 20 mM trisodium citrate, pH 5.4
Procedure: For the HIC column used Butyl Sepharose 4FF (GE Healthcare 17-0980-01) in XK26 column. Buffer C: 20 mM MES/550 mM Ammonium Sulfate, pH 5.9; 8 ml/min for XK26/10 except loading, pre-equilibrate the column with 3 CV of Buffer A (as above), equilibrate the column with 6 CV of Buffer C, load Pooled FimCH sample at 5 ml/min XK26/10 column, wash the column with 6 CV of Buffer C, elute the column with a linear 4 CV gradient from 0-100% Buffer A with fraction collection. FimCH is formulated in the concentration of 0.3 mg/mL in 20 mM MES pH 5.9 or 20 mM trisodium citrate, pH 5.4. It is then aseptically filtered through a 0.2 μm sterile filter. FimCH is stable and can be stored at −20° C. for about at least 2 years.

[4] = target: T1, horseradish peroxidase (HRP) (UniProt P00433 31-338); experiment: in vitro potency assay; inferred from the lack of HRP signal with the Q133K FimH-FimC complex
T1 sequence: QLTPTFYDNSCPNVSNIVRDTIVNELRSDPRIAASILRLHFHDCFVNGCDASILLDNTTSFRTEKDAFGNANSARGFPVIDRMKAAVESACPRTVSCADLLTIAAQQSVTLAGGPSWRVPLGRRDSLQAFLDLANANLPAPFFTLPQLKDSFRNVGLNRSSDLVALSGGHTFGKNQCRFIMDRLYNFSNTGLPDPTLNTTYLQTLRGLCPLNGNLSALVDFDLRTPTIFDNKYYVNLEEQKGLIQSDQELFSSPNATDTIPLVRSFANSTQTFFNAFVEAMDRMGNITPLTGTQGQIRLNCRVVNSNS

Chain of FimH (Escherichia coli, UniProt P08191) (P08191 22-300 P197R/T222H, one chain of several): as the sequence (P08191 22-300 P197R/T222H, one chain of several) above

CO[C@H]1O[C@H](CO)[C@@H](O)[C@H](O)[C@@H]1O [MDMP, methyl-α-D-mannopyranoside]
IC50 (FimH [1]): ~5.15 µM and ~5.1 µM
fold higher 50% inhibition concentration than UFMP (FimH [2]; MDMP versus UFMP): approximately 100 fold

FimCH: non-covalent complex of FimC and FimH recombinant proteins, approximately 51,700 Daltons
HRP binding (mannose-binding activity) (FimH [2]; captured by anti-FimH antisera on ELISA plate): dose-dependent
time stable on storage [3]: at least 2 years

B1: FimC (other)
chain: GVALGATRVIYPAGQKQVQLAVTNNDENSTYLIQSWVENADGVKDGRFIVTPPLFAMKGKKENTLRILDATNNQLPQDRESLFWMNVKAIPSMDKSKLTENTLQLAIISRIKLYYRPAKLALPPDQAAEKLRFRRSANSLTLINPTPYYLTVTELNAGTRVLENALVPPMGESAVKLPSDAGSNITYRTINDYGALTPKMTGVME
notes: also called FimC protein
binding result [4]: no binding

Reference: patent publication US20150086592A1, “COMPOSITIONS OF VACCINES AND ADJUVANTS AND METHODS FOR THE TREATMENT OF URINARY TRACT INFECTIONS” (Sequoia Sciences, Inc, priority 2013, published 2015)
